Data on 91 sequences can be found in the supplement of paper PMC9112550, “Optimization of the antimicrobial peptide Bac7 by deep mutational scanning” (BMC Biology, 2022).

This data set deals with Escherichia coli TOP10. Nature of the data set: shrunken log2 fold change of peptide-encoding DNA abundance (4.5 h post-induction vs induction); higher = less antimicrobial activity (less host growth inhibition). The settings on record: time post-induction: 4.5 h; library: site-saturation at positions 5, 18, 19, 20.
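Further: peptides expressed intracellularly from a pBAD plasmid library in pooled LB shake-flask culture, induced with 0.3% L-arabinose, DNA abundance read by NGS, three biological replicates, DESeq2 with apeglm shrinkage.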

Consider RRIRQRPPRLPRPRPRPFGPPRP, for which the “shrunken log2 fold change” value was found to be 0.0675.
In the case of RRIRVRPPRLPRPRPRPMIKPRP, the “shrunken log2 fold change” value is -0.156.
Regarding RRIRIRPPRLPRPRPRPEHEPRP, the “shrunken log2 fold change” value is -0.434.
As for RRIRERPPRLPRPRPRPHQSPRP, the “shrunken log2 fold change” value was -0.0234.
For RRIRCRPPRLPRPRPRPTEEPRP, the “shrunken log2 fold change” value came to 0.325.
Take RRIRRRPPRLPRPRPRPQEHPRP: the “shrunken log2 fold change” value is 1.34.
For the sequence RRIRFRPPRLPRPRPRPRMTPRP, the “shrunken log2 fold change” value was found to be 0.128.
Regarding RRIRYRPPRLPRPRPRPNMVPRP, the “shrunken log2 fold change” value was -0.0169.
As for RRIRIRPPRLPRPRPRPHINPRP, the “shrunken log2 fold change” value was -0.853.
As to RRIRYRPPRLPRPRPRPLGDPRP, the “shrunken log2 fold change” value was -0.079.
Consider RRIRCRPPRLPRPRPRPYIMPRP, for which the “shrunken log2 fold change” value is -1.48.
For RRIRARPPRLPRPRPRPWGVPRP, the “shrunken log2 fold change” value was found to be 0.329.
The value for RRIRERPPRLPRPRPRPLYQPRP was -0.176; that for RRIRQRPPRLPRPRPRPERFPRP was -0.0441.
For the sequence RRIRVRPPRLPRPRPRPNRYPRP, the “shrunken log2 fold change” value is -0.4.
As for RRIRRRPPRLPRPRPRPRMCPRP, the figure is 0.17; as for RRIRFRPPRLPRPRPRPREGPRP, 0.285.
Turning to RRIRYRPPRLPRPRPRPNFLPRP, the “shrunken log2 fold change” value is -0.623.
Regarding RRIRDRPPRLPRPRPRPGAAPRP, the “shrunken log2 fold change” value was found to be 1.09.
Take RRIRQRPPRLPRPRPRPLEGPRP: the “shrunken log2 fold change” value is -0.0228.
For RRIRIRPPRLPRPRPRPVFRPRP, the “shrunken log2 fold change” value is -0.169.
Consider RRIRMRPPRLPRPRPRPQLVPRP, for which the “shrunken log2 fold change” value amounted to 0.00959.
RRIRARPPRLPRPRPRPRLIPRP: the “shrunken log2 fold change” value worked out at 0.235.
Regarding RRIRQRPPRLPRPRPRPYKFPRP, the “shrunken log2 fold change” value was -0.0369.
For the sequence RRIRNRPPRLPRPRPRPPFFPRP, the “shrunken log2 fold change” value was 0.162.
The value for RRIRYRPPRLPRPRPRPYRPPRP was -0.0134.
Take RRIRLRPPRLPRPRPRPCTQPRP: the “shrunken log2 fold change” value was -0.174.
With RRIRIRPPRLPRPRPRPFGLPRP, the “shrunken log2 fold change” value is -0.129.
As for RRIRCRPPRLPRPRPRPQYPPRP, the “shrunken log2 fold change” value was -0.329.
Consider RRIRYRPPRLPRPRPRPCPTPRP, for which the “shrunken log2 fold change” value is -0.0225.
As for RRIRYRPPRLPRPRPRPAFPPRP, the figure is -0.139; as for RRIRYRPPRLPRPRPRPGDYPRP, 0.065.
The value for RRIRARPPRLPRPRPRPDCYPRP was 0.283; that for RRIRTRPPRLPRPRPRPKQFPRP was -0.103.
Consider RRIRIRPPRLPRPRPRPPAKPRP, for which the “shrunken log2 fold change” value is 0.309.
Take RRIRMRPPRLPRPRPRPHKVPRP: the “shrunken log2 fold change” value was 0.14.
With RRIRQRPPRLPRPRPRPANFPRP, the “shrunken log2 fold change” value was 0.0982.
As for RRIRDRPPRLPRPRPRPANMPRP, the figure is -0.229; as for RRIRFRPPRLPRPRPRPDKVPRP, -0.281; as for RRIRGRPPRLPRPRPRPRSAPRP, 1.31.
In the case of RRIRQRPPRLPRPRPRPTSVPRP, the “shrunken log2 fold change” value was determined as 0.0377.
RRIRQRPPRLPRPRPRPENQPRP: the “shrunken log2 fold change” value stood at 0.128.
With RRIRKRPPRLPRPRPRPVAKPRP, the “shrunken log2 fold change” value was 3.34.
Turning to RRIRTRPPRLPRPRPRPGALPRP, the “shrunken log2 fold change” value worked out at 0.00437.
Take RRIRRRPPRLPRPRPRPQPDPRP: the “shrunken log2 fold change” value stood at 0.317.
As for RRIRCRPPRLPRPRPRPPTRPRP, the figure is 0.645.
In the case of RRIRNRPPRLPRPRPRPYMRPRP, the “shrunken log2 fold change” value is -0.597.
For the sequence RRIRVRPPRLPRPRPRPAPIPRP, the “shrunken log2 fold change” value came to 0.152.
Take RRIRKRPPRLPRPRPRPSWEPRP: the “shrunken log2 fold change” value came to 0.153.
Regarding RRIRFRPPRLPRPRPRPCQCPRP, the “shrunken log2 fold change” value is -0.035.
Regarding RRIRFRPPRLPRPRPRPIGGPRP, the “shrunken log2 fold change” value was 0.14.
As for RRIRNRPPRLPRPRPRPYDSPRP, the “shrunken log2 fold change” value is -0.284.
The value for RRIRARPPRLPRPRPRPGIWPRP was 0.168.
RRIRRRPPRLPRPRPRPGIGPRP: the “shrunken log2 fold change” value is -0.00887.
In the case of RRIRKRPPRLPRPRPRPDKFPRP, the “shrunken log2 fold change” value came to 0.126.
On to RRIRRRPPRLPRPRPRPVYSPRP, for which the “shrunken log2 fold change” value was -0.139.
The value for RRIRFRPPRLPRPRPRPQCIPRP was -0.0639; that for RRIRIRPPRLPRPRPRPKIFPRP was 0.27.
RRIRLRPPRLPRPRPRPTFKPRP: the “shrunken log2 fold change” value is -0.0433.
On to RRIRVRPPRLPRPRPRPQFAPRP, for which the “shrunken log2 fold change” value turned out to be 0.133.
For RRIRCRPPRLPRPRPRPLQQPRP, the “shrunken log2 fold change” value turned out to be 0.178.
Turning to RRIRMRPPRLPRPRPRPQIFPRP, the “shrunken log2 fold change” value was -0.0615.
As for RRIRHRPPRLPRPRPRPRRPPRP, the figure is 0.385.
As for RRIRKRPPRLPRPRPRPVHSPRP, the figure is 0.034; as for RRIRNRPPRLPRPRPRPLWWPRP, 0.605; as for RRIRLRPPRLPRPRPRPNEMPRP, 0.0287.
Turning to RRIRKRPPRLPRPRPRPNCYPRP, the “shrunken log2 fold change” value is -0.08.
Turning to RRIRARPPRLPRPRPRPPIVPRP, the “shrunken log2 fold change” value is -0.0791.
As for RRIRVRPPRLPRPRPRPISIPRP, the figure is -0.133; as for RRIRARPPRLPRPRPRPWPYPRP, -0.144.
As for RRIRQRPPRLPRPRPRPCLFPRP, the figure is -0.268.
The value for RRIRTRPPRLPRPRPRPICAPRP was 0.0827; that for RRIRVRPPRLPRPRPRPVIEPRP was 0.161; that for RRIRRRPPRLPRPRPRPEGCPRP was 0.863.
Take RRIRIRPPRLPRPRPRPLGDPRP: the “shrunken log2 fold change” value was -0.0585.
For RRIRPRPPRLPRPRPRPTHKPRP, the “shrunken log2 fold change” value was 0.283.
For RRIRTRPPRLPRPRPRPHCQPRP, the “shrunken log2 fold change” value is -0.359.
For RRIRCRPPRLPRPRPRPPPWPRP, the “shrunken log2 fold change” value is 1.06.
Consider RRIRKRPPRLPRPRPRPWGPPRP, for which the “shrunken log2 fold change” value was -0.125.
In the case of RRIRGRPPRLPRPRPRPYDLPRP, the “shrunken log2 fold change” value is -0.511.
In the case of RRIRKRPPRLPRPRPRPLCAPRP, the “shrunken log2 fold change” value is 0.604.
Take RRIRTRPPRLPRPRPRPALMPRP: the “shrunken log2 fold change” value is 0.165.
The value for RRIRLRPPRLPRPRPRPYSEPRP was -1.71; that for RRIRDRPPRLPRPRPRPTHWPRP was 0.192; that for RRIRSRPPRLPRPRPRPLHLPRP was -0.0832.
Turning to RRIRLRPPRLPRPRPRPPCDPRP, the “shrunken log2 fold change” value is -0.29.
With RRIRKRPPRLPRPRPRPYCFPRP, the “shrunken log2 fold change” value was -0.258.
For RRIRWRPPRLPRPRPRPIMHPRP, the “shrunken log2 fold change” value was -0.174.
For the sequence RRIRARPPRLPRPRPRPFTWPRP, the “shrunken log2 fold change” value was -0.193.
RRIRCRPPRLPRPRPRPQHWPRP: the “shrunken log2 fold change” value turned out to be 0.102.
As for RRIRNRPPRLPRPRPRPRRFPRP, the “shrunken log2 fold change” value amounted to 0.0247.
